In paper doi:10.1101/2025.06.25.661420:

Target: SUMO fusion of the glycophorin A TM domain
Assay: SEC

stoichiometry N: 2
Substance: SUMO fusion of the glycophorin A TM domain (domain or fragment)
